Measured values: patent US20230242640A1 (OSE IMMUNOTHERAPEUTICS, published 2023)

Assays:
[1] = molecular target: T1, recombinant hSIRPg-His (Sino Biologicals reference 11828-H08H) (human, UniProt Q9P1W8 29-360); experiment: ELISA on coated SIRPg-His
T1 construct: Bought protein; also called protein SIRPg-His; SIRP-gamma
Experimental: For activity ELISA assay, recombinant hSIRPg (Sino Biologicals, Beijing, China; reference 11828-H08H) or hSIRPa (Sino Biologicals, Beijing, China; reference 11612-H08H) was immobilized on plastic at 1 µg/ml (hSIRPg) or 0.5 µg/ml (hSIRPa) in carbonate buffer (pH9.2) and purified antibody were added to measure binding.

protein SIRPb-His = molecular target: T2, protein SIRPb-His (human, UniProt Q5TFQ8 30-371); experiment: ELISA on coated SIRPb-His
T2 construct: The methods give no supplier for SIRPb-His; also called hSIRPb-his
Text: FIG. 2. Binding on SIRPg, SIRPa and SIRPb ELISA assay (protein SIRPa/b/g-His coated and anti-human peroxidase detection). Binding analysis of antibodies A1, A5 and A8, and prior art antibody Kwar23.

T2 sequence (Q5TFQ8 30-371): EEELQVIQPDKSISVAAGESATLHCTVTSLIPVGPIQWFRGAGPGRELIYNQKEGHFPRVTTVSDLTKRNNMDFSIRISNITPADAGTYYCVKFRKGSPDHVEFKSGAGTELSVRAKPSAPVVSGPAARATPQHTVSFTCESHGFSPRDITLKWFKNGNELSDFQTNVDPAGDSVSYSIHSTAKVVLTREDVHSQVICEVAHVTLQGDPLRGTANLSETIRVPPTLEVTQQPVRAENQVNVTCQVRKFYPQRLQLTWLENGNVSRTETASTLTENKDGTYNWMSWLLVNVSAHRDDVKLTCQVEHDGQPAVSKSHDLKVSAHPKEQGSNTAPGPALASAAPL
T1 sequence (Q9P1W8 29-360): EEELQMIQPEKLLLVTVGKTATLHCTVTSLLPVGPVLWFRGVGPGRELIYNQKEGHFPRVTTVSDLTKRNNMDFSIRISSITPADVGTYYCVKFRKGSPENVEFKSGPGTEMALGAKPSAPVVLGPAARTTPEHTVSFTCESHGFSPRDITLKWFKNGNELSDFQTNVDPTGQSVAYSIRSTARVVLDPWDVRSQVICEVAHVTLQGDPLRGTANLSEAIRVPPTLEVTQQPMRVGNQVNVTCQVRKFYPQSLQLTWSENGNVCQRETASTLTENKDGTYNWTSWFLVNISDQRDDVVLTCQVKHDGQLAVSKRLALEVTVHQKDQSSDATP

| binding result [1] | binding result (protein SIRPb-His) | Binder |
| --- | --- | --- |
| binds | no binding | anti-SIRPg antibody A1 (antibody, human IgG4 S228P, kappa, V domains shown, human IgG4 S228P, kappa constant; also called VHA1-hFcG4 + VL-CLkappa) VH: EVQLVESGGGVVRPGGSLRLSCAASGFTFDDYGMSWVRQAPGKGLEWVSGINWNGGSTGYADSVKGRFTISRDNAKNSLYLQMNSLRAEDTAVYYCARWIAKVWGQGTLVTVSR VL: SSELTQDPAVSVALGQTVRITCQGDSLRSYYASWYQQKPGQAPVLVIYGKNNRPSGIPDRFSGSSSGNTASLTITGAQAEDEADYYCNSRDSSGNHVVFGGGTKLTVLR |
| binds | no binding | anti-SIRPg antibody A8 (antibody, human IgG4 S228P, kappa, V domains shown, human IgG4 S228P, kappa constant; also called VHA8-hFcG4 + VL-CLkappa) VH: not shown VL: SSELTQDPAVSVALGQTVRITCQGDSLRSYYASWYQQKPGQAPVLVIYGKNNRPSGIPDRFSGSSSGNTASLTITGAQAEDEADYYCNSRDSSGNHVVFGGGTKLTVLR |
| binds | no binding | anti-SIRPg antibody A5 (antibody, human IgG4 S228P, kappa, V domains shown, human IgG4 S228P, kappa constant; also called VHA5-hFcG4 + VL-CLkappa) VH: EVQLVESGGGVVRPGGSLRLSCAASGFTFDDYGMSWVRQAPGKGLEWVSGINWNGGSTGYADSVKGRFTISRDNAKNSLYLQMNSLRAEDTAVYYCARQMVKLWGQGTLVTVSR VL: SSELTQDPAVSVALGQTVRITCQGDSLRSYYASWYQQKPGQAPVLVIYGKNNRPSGIPDRFSGSSSGNTASLTITGAQAEDEADYYCNSRDSSGNHVVFGGGTKLTVLR |
